Publication PMC4029989, “Selection of a Novel DNA Aptamer for Assay of Intracellular Interferon-Gamma”

Legend:
[1] = target: Interferon-gamma, intracellular (Homo sapiens, UniProt P01579 24-161); experiment: flow cytometry of fixed permeabilized cells; 0.05 pM aptamer; no correlation with stimulated cells; PBS binding buffer (SELEX with 0.1 mg/mL salmon sperm DNA and 1 mg/mL BSA, 37 °C); Kd assay on beads in binding buffer, room temperature, 30 min; pH not stated; conditions: protein: native; chain copies: 2
Chain of Interferon-gamma, intracellular (P01579 24-161): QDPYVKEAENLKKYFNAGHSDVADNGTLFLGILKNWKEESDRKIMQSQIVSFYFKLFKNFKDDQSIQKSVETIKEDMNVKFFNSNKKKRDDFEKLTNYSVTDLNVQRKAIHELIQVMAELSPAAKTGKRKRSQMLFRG

[2] = target: T1, Interferon-gamma (IFN-γ) (Homo sapiens, UniProt P01579 24-161); experiment: flow cytometry bead binding; binding buffer (PBS), room temperature, blank-bead signal subtracted; PBS binding buffer (SELEX with 0.1 mg/mL salmon sperm DNA and 1 mg/mL BSA, 37 °C); Kd assay on beads in binding buffer, room temperature, 30 min; pH not stated; conditions: protein: commercial; chain copies: 2; label: FITC
T1 sequence (P01579 24-161): as above

[3] = target: T1, Interferon-gamma (IFN-γ); experiment: flow cytometry bead binding; PBS binding buffer (SELEX with 0.1 mg/mL salmon sperm DNA and 1 mg/mL BSA, 37 °C); Kd assay on beads in binding buffer, room temperature, 30 min; pH not stated; conditions: protein: commercial; chain copies: 2; label: FITC
[4] = target: Bovine serum albumin (BSA) (Bos taurus, UniProt P02769 25-607); experiment: flow cytometry bead binding; bound albumin to a large degree; PBS binding buffer (SELEX with 0.1 mg/mL salmon sperm DNA and 1 mg/mL BSA, 37 °C); Kd assay on beads in binding buffer, room temperature, 30 min; pH not stated; conditions: protein: commercial; label: FITC
Chain of Bovine serum albumin (BSA) (P02769 25-607): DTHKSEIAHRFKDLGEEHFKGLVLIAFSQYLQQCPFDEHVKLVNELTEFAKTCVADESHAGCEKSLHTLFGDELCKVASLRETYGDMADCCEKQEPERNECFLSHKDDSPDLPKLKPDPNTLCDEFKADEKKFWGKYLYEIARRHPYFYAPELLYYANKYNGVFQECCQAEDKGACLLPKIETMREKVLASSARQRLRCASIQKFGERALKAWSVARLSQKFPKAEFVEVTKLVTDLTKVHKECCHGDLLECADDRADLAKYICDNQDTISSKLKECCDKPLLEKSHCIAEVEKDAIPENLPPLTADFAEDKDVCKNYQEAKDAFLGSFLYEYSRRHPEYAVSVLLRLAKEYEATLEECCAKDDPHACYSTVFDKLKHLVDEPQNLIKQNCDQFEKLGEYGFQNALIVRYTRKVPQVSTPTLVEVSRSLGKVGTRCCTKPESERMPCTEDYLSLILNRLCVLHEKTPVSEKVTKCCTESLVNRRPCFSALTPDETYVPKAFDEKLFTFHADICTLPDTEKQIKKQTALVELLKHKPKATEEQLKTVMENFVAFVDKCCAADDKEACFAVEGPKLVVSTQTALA

B1: A2 (ssDNA)
DNA: TGCCCGTGTCCCGAGGAGGTGCCCTATTTTGCTTGATTATCTCTAAGGGATTTGGGCGG
[1]
  binding result: no binding

B2: B1-4 (ssDNA)
DNA: CCGCCCAAATCCCTAAGAGAAGACTGTAATGACATCAAACCAGACACACTACACACGCA
[2]
  Kd: 74.5 nM

## GGGGTTGGTTGTGTTGGGTGTTGTGT (ssDNA) [T2]
[3]
  binding result: binds
[4]
  binding result: binds
